In PMC7101349 (2020) one finds Kd and koff data, which are given here for five molecules.

Experiment in all cases: SPR
For orientation: Surface plasmon resonance follows binding to a sensor surface in real time, without labels.

The target of assay [1] is T1, His10-BRIL (UniProt P0ABE7 30-123).
Assay [2] addresses T1, His10-BRIL. The source holds these as a separate data set.
For assay [3], the target named is T1, His10-BRIL. This is another data set of the same source.
In assay [4] the target is T1, His10-BRIL. This is another data set of the same source.

Where two headings read alike, the source gives them in different places.

B1: sAB BAK5 (Fab, V domains shown)
VH: EVQLVESGGGLVQPGGSLRLSCAASGFNVRSFSIHWVRQAPGKGLEWVAYISSSSGSTSYADSVKGRFTISADTSKNTAYLQMNSLRAEDTAVYYCARWGYWPGEPWWKAFDYWGQGTLVTVSS
VL: DIQMTQSPSSLSASVGDRVTITCRASQSVSSAVAWYQQKPGKAPKLLIYSASSLYSGVPSRFSGSRSGTDFTLTISSLQPEDFATYYCQQYLYYSLVTFGQGTKVEIK
In the assay with His10-BRIL [1], B1 showed a Kd of 0.175 nM. That is a sub-nanomolar value.

B2: BAG2 F35A (Fab, V domains shown)
VH: EVQLVESGGGLVQPGGSLRLSCAASGFNVVDASLHWVRQAPGKGLEWVAYISSSSGSTSYADSVKGRFTISADTSKNTAYLQMNSLRAEDTAVYYCARWGYWPGEPWWKAFDYWGQGTLVTVSS
VL: DIQMTQSPSSLSASVGDRVTITCRASQSVSSAVAWYQQKPGKAPKLLIYSASSLYSGVPSRFSGSRSGTDFTLTISSLQPEDFATYYCQQYLYYSLVTFGQGTKVEIK
As for B2, the dissociation rate constant (koff) in the assay with His10-BRIL [2] was 0.00028 s⁻¹.

B3: BAG2 S36A (Fab, V domains shown)
VH: EVQLVESGGGLVQPGGSLRLSCAASGFNVVDFALHWVRQAPGKGLEWVAYISSSSGSTSYADSVKGRFTISADTSKNTAYLQMNSLRAEDTAVYYCARWGYWPGEPWWKAFDYWGQGTLVTVSS
VL: DIQMTQSPSSLSASVGDRVTITCRASQSVSSAVAWYQQKPGKAPKLLIYSASSLYSGVPSRFSGSRSGTDFTLTISSLQPEDFATYYCQQYLYYSLVTFGQGTKVEIK
In the assay with His10-BRIL [2], B3 registered a koff of 0.00037 s⁻¹.

B4: sAB24 (Fab, V domains shown)
VH: EVQLVESGGGLVQPGGSLRLSCAASGFNFSSSSIHWVRQAPGKGLEWVAYISSSSGSTSYADSVKGRFTISADTSKNTAYLQMNSLRAEDTAVYYCARWGYWPGEPWWKAFDYWGQGTLVTVSS
VL: DIQMTQSPSSLSASVGDRVTITCRASQSVSSAVAWYQQKPGKAPKLLIYSASSLYSGVPSRFSGSRSGTDFTLTISSLQPEDFATYYCQQYLYYSLVTFGQGTKVEIK
Molecule B4 displayed an off-rate constant (koff) with His10-BRIL [3] of 0.0008 s⁻¹.

B5: sAB BAG2 (Fab, V domains shown)
VH: EVQLVESGGGLVQPGGSLRLSCAASGFNVVDFSLHWVRQAPGKGLEWVAYISSSSGSTSYADSVKGRFTISADTSKNTAYLQMNSLRAEDTAVYYCARWGYWPGEPWWKAFDYWGQGTLVTVSS
VL: DIQMTQSPSSLSASVGDRVTITCRASQSVSSAVAWYQQKPGKAPKLLIYSASSLYSGVPSRFSGSRSGTDFTLTISSLQPEDFATYYCQQYLYYSLVTFGQGTKVEIK
In turn, B5 returned a koff in the assay with His10-BRIL [4] of 0.00013 s⁻¹. The molecule further showed a dissociation constant (Kd) with His10-BRIL [1] of 0.269 nM.

In general, Kd refers to the free concentration of one partner at which half of the binding sites on the other are occupied at equilibrium, for simple one-to-one binding. Read a high Kd as lower affinity. The term koff denotes the first-order rate constant of dissociation.
